Measured values taken from paper PMC3098244.

Key:
K63-linked diubiquitin = K63-linked diubiquitin (UniProt P0CG48); assay: ITC; conditions: domain or fragment
K48-linked diubiquitin = K48-linked diubiquitin (UniProt P0CG48); assay: ITC; conditions: domain or fragment

GB1-HSJ1a-UIM12 (UIM domain of HSJ1a, residues 206-272, fused to GB1), sequence (P25686 206-272): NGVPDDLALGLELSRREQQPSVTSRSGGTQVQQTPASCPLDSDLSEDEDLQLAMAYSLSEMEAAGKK

For “GB1-HSJ1a-UIM12 (UIM domain of HSJ1a, residues 206-272, fused to GB1) (from UniProt P25686-2 206-272)”, the Kd (K63-linked diubiquitin) was 153 µM and the Kd (K48-linked diubiquitin) was 57 µM.
